These results are taken from US6458929 (LICENTIA, dated 2002).

The target in experiment [1] is T1, myotilin (full length, 498 residues) (human, UniProt Q9UBF9 1-498).
T1 construct: In the yeast two-hybrid assay, full-length myotilin was expressed as a bait (EG202) or prey (JG4-5) fusion protein; In Western blots and staining it was the endogenous muscle protein; also called full-length myotilin
T1 sequence: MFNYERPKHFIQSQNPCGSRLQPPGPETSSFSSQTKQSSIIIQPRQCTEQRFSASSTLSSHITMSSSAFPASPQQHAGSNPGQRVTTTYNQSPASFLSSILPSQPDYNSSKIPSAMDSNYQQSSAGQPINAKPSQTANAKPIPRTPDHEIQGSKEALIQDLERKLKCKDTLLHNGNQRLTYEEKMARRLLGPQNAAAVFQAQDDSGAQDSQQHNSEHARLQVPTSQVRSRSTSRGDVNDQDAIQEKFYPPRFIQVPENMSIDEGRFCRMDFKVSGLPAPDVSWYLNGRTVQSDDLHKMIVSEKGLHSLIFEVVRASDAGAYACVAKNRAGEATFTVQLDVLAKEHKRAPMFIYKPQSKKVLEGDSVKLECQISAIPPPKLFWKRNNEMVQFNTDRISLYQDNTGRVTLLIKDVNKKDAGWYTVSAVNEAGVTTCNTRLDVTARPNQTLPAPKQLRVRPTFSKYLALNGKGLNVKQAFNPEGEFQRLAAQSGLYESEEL
Description: yeast two-hybrid. As for the experimental part: (§1) The COOH-terminal construct of myotilin was subcloned from a partial cDNA sequence obtained from the skeletal muscle library screen. The authentity of the constructs was verified by sequencing. The genotype of the S. cerevisiae strain BOY1, kindly provided by P. Ljungdahl, Ludwig Institute for Cancer Research, Stockholm, Sweden, is MATαhis3 trp1 leu2::6LexAop-LEU2 URA3::8LexAop-Gal1-LacZ. Boy1 mating type a was made using the YCPHO CUT4 plasmid. Yeast strains were grown at 30° C. in rich medium or in synthetic minimal medium with appropriate amino acid supplements. Bait and prey constructs were transformed into BOY1-yeast of both a and a mating type using the TRAFO protocol and plated on selection plates. Clones were grown to late logarithmic phase in selective medium. For analysis of fusion protein expression, yeast cells from 1 ml of overnight culture were lysed in reducing Laemmli sample buffer, the samples were boiled and analyzed by SDS-PAGE and immunoblotting. Baits and preys were grown on selection plates, replica plated together on rich media plates for mating overnight and replica plated on double (tryptophane and histidine) or triple (tryptophane, histidine and leucine) selection with or without 5-bromo-4-chloro-3-indolyl-β-D-galactopyranoside (X-gal)(Boehringer) for selection of interactions.

For experiment [2], the target named is T2, spectrin-like repeats R1-R4 (residues 267-749) of chicken smooth muscle α-actinin (chicken, UniProt P05094 267-749).
T2 construct: range 267-749; Expressed as a bait (EG202) or prey (JG4-5) fusion protein in the yeast two-hybrid assay; also called α-actinin (R1-R4)
Description: yeast two-hybrid. As to the method: as §1

T2 sequence (P05094 267-749 limits assumed): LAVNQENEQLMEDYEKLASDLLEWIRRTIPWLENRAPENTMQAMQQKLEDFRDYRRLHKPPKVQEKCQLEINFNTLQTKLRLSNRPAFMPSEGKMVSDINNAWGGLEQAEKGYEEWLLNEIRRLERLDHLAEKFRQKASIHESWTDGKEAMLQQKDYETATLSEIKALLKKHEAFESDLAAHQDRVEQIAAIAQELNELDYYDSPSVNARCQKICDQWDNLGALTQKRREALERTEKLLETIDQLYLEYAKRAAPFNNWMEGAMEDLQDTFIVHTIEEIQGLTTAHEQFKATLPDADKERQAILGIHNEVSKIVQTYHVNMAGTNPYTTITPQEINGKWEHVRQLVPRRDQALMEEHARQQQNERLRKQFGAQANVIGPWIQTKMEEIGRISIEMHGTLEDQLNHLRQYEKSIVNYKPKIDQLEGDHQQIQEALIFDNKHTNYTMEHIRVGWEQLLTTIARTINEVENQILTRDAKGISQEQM

B1: myotilin215-498 (other)
chain: SEHARLQVPTSQVRSRSTSRGDVNDQDAIQEKFYPPRFIQVPENMSIDEGRFCRMDFKVSGLPAPDVSWYLNGRTVQSDDLHKMIVSEKGLHSLIFEVVRASDAGAYACVAKNRAGEATFTVQLDVLAKEHKRAPMFIYKPQSKKVLEGDSVKLECQISAIPPPKLFWKRNNEMVQFNTDRISLYQDNTGRVTLLIKDVNKKDAGWYTVSAVNEAGVTTCNTRLDVTARPNQTLPAPKQLRVRPTFSKYLALNGKGLNVKQAFNPEGEFQRLAAQSGLYESEEL
notes: Expressed in the yeast two-hybrid assay as a prey fusion protein in JG4-5; it could not be expressed as a bait; also called NH2-terminal deletion construct containing the Ig-domains
Take B1: the binding result was “binds” in experiment [1] and “no binding” in experiment [2].
